Data from patent publication US20160298120A1 (CHILDREN S HOSPITAL OF PHILADELPHIA, published 2016).

Assays:
[1] = biological target: T1, ATF2 (UniProt P15336 1-505, limits assumed); test: co-immunoprecipitation from cell lysates, blot probed with anti-IRF1
T1 construct: Tested by co-immunoprecipitation with IRF1; no association
T1 sequence (looked up): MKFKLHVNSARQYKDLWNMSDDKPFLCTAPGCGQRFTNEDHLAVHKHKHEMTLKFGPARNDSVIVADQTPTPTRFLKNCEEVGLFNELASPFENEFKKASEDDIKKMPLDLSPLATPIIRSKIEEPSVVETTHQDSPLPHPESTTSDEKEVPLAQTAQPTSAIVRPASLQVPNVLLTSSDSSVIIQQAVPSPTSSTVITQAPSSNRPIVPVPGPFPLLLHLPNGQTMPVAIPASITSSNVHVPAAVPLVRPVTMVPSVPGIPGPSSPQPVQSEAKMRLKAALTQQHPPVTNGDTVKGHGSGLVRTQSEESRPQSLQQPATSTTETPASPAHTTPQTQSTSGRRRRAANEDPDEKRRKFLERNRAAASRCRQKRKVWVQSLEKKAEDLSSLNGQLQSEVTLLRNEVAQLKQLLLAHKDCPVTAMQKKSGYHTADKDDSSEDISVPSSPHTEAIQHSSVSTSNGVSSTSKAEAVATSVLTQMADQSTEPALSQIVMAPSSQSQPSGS

[2] = biological target: T2, HAT1 (UniProt O14929 2-419, limits assumed); test: as above
T2 construct: Tested by co-immunoprecipitation with IRF1; no association
T2 sequence (looked up): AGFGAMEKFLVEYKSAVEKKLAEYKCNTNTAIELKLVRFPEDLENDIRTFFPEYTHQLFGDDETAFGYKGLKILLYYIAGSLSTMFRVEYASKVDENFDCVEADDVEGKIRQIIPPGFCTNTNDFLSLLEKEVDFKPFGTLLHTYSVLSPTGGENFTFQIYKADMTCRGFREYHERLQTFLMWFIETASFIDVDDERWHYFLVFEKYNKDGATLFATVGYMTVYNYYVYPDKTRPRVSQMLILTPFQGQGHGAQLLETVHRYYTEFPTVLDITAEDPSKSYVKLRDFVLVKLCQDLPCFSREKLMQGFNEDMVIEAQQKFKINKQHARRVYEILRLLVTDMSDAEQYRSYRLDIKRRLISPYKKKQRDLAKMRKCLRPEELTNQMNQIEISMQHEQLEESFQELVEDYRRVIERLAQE

binding result [1]: no binding
binding result [2]: no binding
B1: Interferon regulatory factor 1 (IRF1) (other, UniProt P10914 1-325, looked up)
chain: MPITRMRMRPWLEMQINSNQIPGLIWINKEEMIFQIPWKHAAKHGWDINKDACLFRSWAIHTGRYKAGEKEPDPKTWKANFRCAMNSLPDIEEVKDQSRNKGSSAVRVYRMLPPLTKNQRKERKSKSSRDAKSKAKRKSCGDSSPDTFSDGLSSSTLPDDHSSYTVPGYMQDLEVEQALTPALSPCAVSSTLPDWHIPVEVVPDSTSDLYNFQVSPMPSTSEATTDEDEEGKLPEDIMKLLEQSEWQPTNVDGKGYLLNEPGVQPTSVYGDFSCKEEPEIDSPGGDIGLSLQRVFTDLKNMDATWLDSLLTPVRLPSIQAIPCAP
notes: Endogenous protein from MonoMac6 lysates, detected with anti-IRF1 on the blot after co-immunoprecipitation
